# Measured values published in patent US20250277022A1 (STAIDSON BEIJING BIOPHARMACEUTICALS, published 2025).
# Residue numbers refer to the chain shown, from its start. Where two headings read alike, the source gives them in different places.
# B1: TSLP-01 (antibody, V domains shown)
# VH: QVQLQESGPGLVKPSETLSLTCAVSGYSISSGYGWSWIRQPPGKGLEWIGYISYYGSISYNPSLKSRVTISRDTSKNQFSLKLSSVTAADTAVYYCARTNLLYFDSWGQGTLVTVSS
# VL: EIVMTQSPATLSLSPGERATLSCRASQSVSNNLAWYQQKPGQAPRLLIYDASSRATGIPARFSGSGSGTDFTLTISSLEPEDFAVYYCQQYSDWPQYTFGQGTKVEIK
# notes: also called parent antibody TSLP-01
# B2: TSLP-0202 (antibody, V domains shown)
# VH: QVQLVQSGAEVKKPGSSVKVSCKASGFTFGSYGINWVRQAPGQGLEWMGVIVPLVGVTIYAEKFQGRVTITADESTSTAYMELSSLRSEDTAVYYCARGQEYFYWYFDLWGQGTLVTVSS
# VL: QSALTQPPSASGSPGQSVTISCSGSSSDIGGYNRVSWYQQHPGKAPKLMIYDVSKRPSGVPDRFSGSKSGNTASLTVSGLQAEDEADYYCSSYAGTDTFILFGGGTKLTVL
# notes: also called TSLP-0202-IgG1
# B3: TSLP-03 (antibody, V domains shown)
# VH: EVQLVESGGGLVQPGGSLRLSCAASGFTFSNYDMTWVRQAPGKGLEWVSSITFASSYIYYADSVKGRFTISRDNAKNSLSLQMNSLRAEDTAVYYCTRGGGAYHGGSLDVWGQGVLVTVSS
# VL: DIVMTQTPLSLSVTPGEPASISCRSSQSLLHINGYTYLHWYLQKPGQSPQLLIYLVSHRASGVPDRFSGSGSDTDFTLKISRVEAEDVGVYYCEQTLQTPYSFGGGTKVEIK
# notes: also called parent antibody TSLP-03
# B4: TSLP-0302 (antibody, V domains shown)
# VH: B3 VH with D33G, H104Y
# VL: B3 VL with I32S, N33Y, H58Y, S102T
# B5: TSLP-04 (antibody, V domains shown)
# V domain 1: QEQLVQSGDEVKKPGASVKVSCKSSGFTFGSYAISWVRQAPGQGLEWMGMLVPLLGVTNYAEKFQGRVTITADPSTTTTSMELSSLRSEDTAVYYCARGGSNYLYWYFDLWGPGTPITVSS
# V domain 2: QSAPIQPRSVSGSPGQSVTISCTGTSSDIGGYNRISWYQQHPGKAPKLMIYDVSKRPSGVSDRFSGSKSGNTASLTISGLQAEDEADYYCSSYAGTDTFVLFGGGTQLTIV
# notes: also called parent antibody TSLP-04
# B6: TSLP-0401 (antibody, V domains shown)
# V domain 1: B5 V domain 1 with L51I, V52I, N59D, S101T
# V domain 2: B5 V domain 2 with I35V, D52E, S92A
# B7: TSLP-0107 (antibody, V domains shown)
# VH: B1 VH with A23T, R72V
# VL: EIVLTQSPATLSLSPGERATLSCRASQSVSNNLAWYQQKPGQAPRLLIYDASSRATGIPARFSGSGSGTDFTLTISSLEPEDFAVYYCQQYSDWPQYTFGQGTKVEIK
# notes: also called TSLP-0107-IgG1
# B8: AMG157 (antibody, V domains shown)
# VH: QMQLVESGGGVVQPGRSLRLSCAASGFTFRTYGMHWVRQAPGKGLEWVAVIWYDGSNKHYADSVKGRFTITRDNSKNTLNLQMNSLRAEDTAVYYCARAPQWELVHEAFDIWGQGTMVTVSS
# VL: SYVLTQPPSVSVAPGQTARITCGGNNLGSKSVHWYQQKPGQAPVLVVYDDSDRPSWIPERFSGSNSGNTATLTISRGEAGDEADYYCQVWDSSSDHVVFGGGTKLTVLG
# Tests used:
# [1] = molecular target: T1, cynomolgus monkey TSLP (cynomolgus monkey, UniProt A0A7N9CAT7 29-159); experiment: ELISA, plate coated with cynomolgus monkey TSLP, test antibodies as human IgG1
# T1 construct: also called cynomolgus TSLP; recombinant cynomolgus monkey TSLP
# T1 sequence (A0A7N9CAT7 entry or part of it): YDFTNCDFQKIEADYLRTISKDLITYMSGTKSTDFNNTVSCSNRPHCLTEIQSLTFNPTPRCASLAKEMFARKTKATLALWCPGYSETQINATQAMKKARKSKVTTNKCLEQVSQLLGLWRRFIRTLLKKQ
# Experimental: (§1) ELISA Screening: Monoclonal scFv antibodies were selected and subjected to ligand binding assays. The first assay was designed to identify scFv antibodies that bound human TSLP and/or cynomolgus TSLP. Briefly, a 96-well plate was coated with human TSLP or cynomolgus TSLP in PBS at 0.1 μg/well and left overnight at 4° C. Before loading the scFv antibodies, the plates were washed with TBST, blocked for 1-2 hours at 37° C. using 5% milk and washed again with TBST. Each scFv sample was first diluted to 40 μg/mL, and 150 μL was added to the first row of wells. The 40 μg/mL scFv samples were then serially diluted at a 1:3 ratio and added to the remaining wells. After incubating for an hour at 37° C., followed by washing with TBST for 6 times, 100 μl of the secondary antibody (HRP labeled mouse anti-flag (1:2500)) was added to each well. After incubation for an hour under 37° C., the plate was washed for 3 times using TBST. TMB was then added at 100 μL/well and incubated for 10-20 minutes at 37° C. 2 M H₂SO₄ was used to stop the reaction. The ELISA results (OD405) were then analyzed and the binding curves were generated by PRISM.
# [2] = molecular target: T2, human TSLP (human, UniProt Q969D9 29-159); experiment: ELISA, plate coated with human TSLP, test antibodies as human IgG1
# T2 construct: used biotinylated in some assays; also called hTSLP; recombinant human TSLP
# Experimental: as §1
# [3] = molecular target: T2, human TSLP; experiment: ELISA, biotin labeled full length TSLP on streptavidin plate; full length isoform TSLP, not short isoform
# Experimental: Binding of anti-TSLP antibodies to short form TSLP was determined using an ELISA method. […] A rabbit serum was used as a negative control. Briefly, a 96-well plate was coated with 100 μl of 1 μg/mL streptavidin overnight. The plates were washed with PBST, then 100 μl of 1 μg/ml biotin labeled short TSLP or long TSLP was added to the plates, incubated at 37° C. for 1 hour. […] After incubating the plates for an hour at 37° C., followed by washing with PBST for 6 times, the secondary antibody anti-human-Fc-HRP or anti-rabbit-Fc-AP was added to each well. After incubation for an hour under 37° C., the plate was washed for 3 times using PBST. TMB or pNPP was then added at 100 μL/well and incubated for 10-20 minutes at room temperature. 2 M H₂SO₄ or 3 M NaOH was used to stop the reaction. The ELISA results were then analyzed and the binding curves were generated by GraphPad Prism 5 software (GraphPad Software).
# [4] = molecular target: T2, human TSLP; experiment: cell-based or functional assay
# [5] = molecular target: T1, cynomolgus monkey TSLP; experiment: solution equilibrium titration, MSD electrochemiluminescence, IgG1
# [6] = molecular target: T2, human TSLP; experiment: cell-based or functional assay; remark: listed apart in the source
# [7] = molecular target: T1, cynomolgus monkey TSLP; experiment: ELISA, plate coated with cynomolgus monkey TSLP, test antibodies as human IgG1; remark: listed apart in the source
# Experimental: as §1
# [8] = molecular target: T2, human TSLP; experiment: solution equilibrium titration, MSD electrochemiluminescence, IgG1
# Experimental: Briefly, according to the manufacturer's instructions, the streptavidin MSD plates were blocked 30 mins at RT with PBS with 3% BSA (assay buffer). Serially diluted human TSLP with the concentration from 0 to 50 nM was equilibrated with the tested antibodies with the concentration of 10 pM overnight at RT, wells without antigen were used to determine Bmax values; wells containing only assay buffer were used to determine background. 50 μL of biotinylated human TSLP was coated at 0.2 μg/mL in assay buffer for 30 mins at RT on streptavidin MSD plates. After washing with PBST for 3 times, 50 μL of the equilibrated samples were transferred to those plates and incubated for 30 mins at RT. […] After washing the MSD Plate with PBST for 3 times, 150 μL of MSD read buffer was added to each well, electrochemiluminescence signals of the plate was detected using a Sector Imager 6000 (Meso Scale Discovery, Gaithersburg, MD, USA).
# [9] = molecular target: T2, human TSLP; experiment: cell-based or functional assay; remark: listed apart in the source
# [10] = molecular target: T3, TSLP-His (human, UniProt Q969D9 29-159, limits assumed); experiment: HTRF competition: blocking of TSLP-his binding to HEK293-Flag-hTSLPR-IL7Ra cells, IgG1
# T3 construct: also called his-tagged TSLP; not shown: His-tag
# [11] = molecular target: T2, human TSLP; experiment: cell-based or functional assay; remark: listed apart in the source
# [12] = molecular target: T2, human TSLP; experiment: ELISA, plate coated with human TSLP, test antibodies as human IgG1; remark: listed apart in the source
# Experimental: as §1
# [13] = molecular target: T1, cynomolgus monkey TSLP; experiment: ELISA, plate coated with cynomolgus monkey TSLP, test antibodies as human IgG1; remark: listed apart in the source
# Experimental: as §1
# [14] = molecular target: T2, human TSLP; experiment: cell-based or functional assay; remark: listed apart in the source
# [15] = molecular target: T2, human TSLP; experiment: ELISA, plate coated with human TSLP, test antibodies as human IgG1; remark: listed apart in the source
# Experimental: as §1
# [16] = molecular target: T2, human TSLP; experiment: as above; remark: listed apart in the source
# Experimental: as §1
# [17] = molecular target: T1, cynomolgus monkey TSLP; experiment: ELISA, plate coated with cynomolgus monkey TSLP, test antibodies as human IgG1; remark: listed apart in the source
# Experimental: as §1
# [18] = molecular target: T4, human IL-7 (human, UniProt P13232 26-177); experiment: ELISA on human IL-7
# T4 construct: also called TSLP homologous protein IL-7
# T4 sequence (looked up): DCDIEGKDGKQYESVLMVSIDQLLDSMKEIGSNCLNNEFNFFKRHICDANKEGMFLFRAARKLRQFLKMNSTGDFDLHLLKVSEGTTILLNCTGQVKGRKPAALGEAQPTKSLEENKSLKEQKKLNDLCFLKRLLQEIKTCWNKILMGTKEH
# [19] = molecular target: E. coli derived human TSLP (human, UniProt Q969D9 29-159, limits assumed); experiment: cell-based or functional assay
# [20] = molecular target: T1, cynomolgus monkey TSLP; experiment: ELISA, plate coated with cynomolgus monkey TSLP
# [21] = molecular target: T1, cynomolgus monkey TSLP; experiment: solution equilibrium titration, MSD electrochemiluminescence
binder,measurement,setting,value
B1,EC50 (read off the curve),[1],~0.5 µg/mL
same,EC50 (read off the curve),[2],~0.03 µg/mL
same,EC50,[3],0.0335 µg/mL
same,"IC50, inhibition of human TSLP-induced Stat5 activation (Stat5-luciferase reporter, Ba/F3 cells with hTSLPR and hIL7Ra)",[4],19.3 ng/mL
B2,Kd,[5],0.00447 nM
same,"IC50, inhibition of human TSLP induced TARC release from human PBMCs (TARC ELISA)",[6],0.364 ng/mL
same,EC50 (read off the curve),[7],~0.7 µg/mL
same,Kd,[8],0.0211 nM
same,"IC50, inhibition of TSLP induced proliferation of Ba/F3-TSLPR-IL7Ra cells (CellTiter-Glo)",[9],13.1 ng/mL
same,IC50,[10],0.297 µg/mL
same,"IC50, inhibition of human TSLP-induced Stat5 activation (Stat5-luciferase reporter, Ba/F3 cells with hTSLPR and hIL7Ra)",[11],2.57 ng/mL
same,EC50 (read off the curve),[12],~0.08 µg/mL
B3,EC50 (read off the curve),[13],~0.9 µg/mL
same,"IC50, inhibition of TSLP induced proliferation of Ba/F3-TSLPR-IL7Ra cells (CellTiter-Glo)",[9],198 ng/mL
same,"IC50, inhibition of human TSLP-induced Stat5 activation (Stat5-luciferase reporter, Ba/F3 cells with hTSLPR and hIL7Ra)",[14],36.7 ng/mL
same,EC50 (read off the curve),[15],~0.08 µg/mL
same,IC50,[10],0.494 µg/mL
B4,EC50 (read off the curve),[15],~0.06 µg/mL
B5,"IC50, inhibition of TSLP induced proliferation of Ba/F3-TSLPR-IL7Ra cells (CellTiter-Glo)",[9],150 ng/mL
same,"IC50, inhibition of human TSLP-induced Stat5 activation (Stat5-luciferase reporter, Ba/F3 cells with hTSLPR and hIL7Ra)",[14],36.4 ng/mL
same,EC50 (read off the curve),[16],~0.1 µg/mL
B6,EC50 (read off the curve),[17],~2 µg/mL
same,"IC50, inhibition of TSLP induced proliferation of Ba/F3-TSLPR-IL7Ra cells (CellTiter-Glo)",[9],19.5 ng/mL
same,"IC50, inhibition of human TSLP-induced Stat5 activation (Stat5-luciferase reporter, Ba/F3 cells with hTSLPR and hIL7Ra)",[14],19.5 ng/mL
same,EC50 (read off the curve),[16],~0.1 µg/mL
same,IC50,[10],0.333 µg/mL
B7,EC50 (read off the curve),[1],~0.7 µg/mL
same,EC50 (read off the curve),[2],~0.04 µg/mL
same,Kd,[5],0.0254 nM
same,"IC50, inhibition of human TSLP induced TARC release from human PBMCs (TARC ELISA)",[6],0.758 ng/mL
same,Kd,[8],0.044 nM
same,"IC50, inhibition of TSLP induced proliferation of Ba/F3-TSLPR-IL7Ra cells (CellTiter-Glo)",[9],13.6 ng/mL
same,"IC50, inhibition of human TSLP-induced Stat5 activation (Stat5-luciferase reporter, Ba/F3 cells with hTSLPR and hIL7Ra)",[4],8.84 ng/mL
same,binding result,[18],no binding
same,"IC50, inhibition of E. coli derived human TSLP induced Stat5 activation",[19],2.59 ng/mL
same,IC50,[10],0.116 µg/mL
B8,EC50 (read off the curve),[20],~0.5 µg/mL
same,Kd,[21],0.0176 nM
